The record followed here is publication PMC10786891, “Massively parallel profiling of RNA-targeting CRISPR-Cas13d”.

T1: EsCas13d, nuclease-dead (Eubacterium siraeum, UniProt B0MS50, R295A;H300A;R849A;H854A)
T1 sequence: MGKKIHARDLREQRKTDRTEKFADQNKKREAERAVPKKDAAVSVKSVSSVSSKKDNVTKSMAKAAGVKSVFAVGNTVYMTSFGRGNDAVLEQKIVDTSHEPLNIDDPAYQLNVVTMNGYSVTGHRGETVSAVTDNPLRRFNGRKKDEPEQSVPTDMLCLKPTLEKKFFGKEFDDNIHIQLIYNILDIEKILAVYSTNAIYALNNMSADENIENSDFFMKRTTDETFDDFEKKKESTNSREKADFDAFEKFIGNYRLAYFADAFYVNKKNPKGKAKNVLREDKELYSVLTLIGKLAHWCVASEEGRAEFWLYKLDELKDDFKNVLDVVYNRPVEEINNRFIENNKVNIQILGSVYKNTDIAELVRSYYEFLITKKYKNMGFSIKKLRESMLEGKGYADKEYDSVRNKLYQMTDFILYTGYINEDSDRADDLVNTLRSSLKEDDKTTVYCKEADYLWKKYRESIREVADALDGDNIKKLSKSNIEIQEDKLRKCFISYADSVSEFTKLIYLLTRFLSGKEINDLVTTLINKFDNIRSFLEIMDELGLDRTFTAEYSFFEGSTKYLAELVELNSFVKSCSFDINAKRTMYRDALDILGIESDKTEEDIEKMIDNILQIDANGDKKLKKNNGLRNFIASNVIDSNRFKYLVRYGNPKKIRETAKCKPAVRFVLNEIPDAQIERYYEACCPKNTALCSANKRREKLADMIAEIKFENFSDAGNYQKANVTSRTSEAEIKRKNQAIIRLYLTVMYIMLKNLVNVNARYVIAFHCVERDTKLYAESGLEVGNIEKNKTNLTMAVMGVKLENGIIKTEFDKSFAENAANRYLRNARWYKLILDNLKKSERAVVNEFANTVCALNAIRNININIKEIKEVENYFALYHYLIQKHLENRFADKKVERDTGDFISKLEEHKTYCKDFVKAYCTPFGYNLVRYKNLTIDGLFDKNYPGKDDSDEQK

B1: target 1 insC 3' of 19,insA 3' of 6 (mixed)
RNA 1: CACCCGUGCAAAAAUGCAGGGGUCUAAAACUGAGCGGAUAACCUCUCUAUGG
RNA 2: GGGAAUGGAUCCACAUCUACGAAUUCGUACCAUCAGAGAGGUUAUCCAGCUCACCGAGAUCGGAAGAGCACACGU
B2: target 1 insA 3' of 15,insA 3' of 15 (mixed)
RNA 1: CACCCGUGCAAAAAUGCAGGGGUCUAAAACUGAGCGGAUAACCUCUCUAUGG
RNA 2: GGGAAUGGAUCCACAUCUACGAAUUCGUACCAUAGAGAAAGGUUAUCCGCUCACCGAGAUCGGAAGAGCACACGU
B3: target 1 insU 3' of 1,insU 3' of 1 (mixed)
RNA 1: CACCCGUGCAAAAAUGCAGGGGUCUAAAACUGAGCGGAUAACCUCUCUAUGG
RNA 2: GGGAAUGGAUCCACAUCUACGAAUUCGUACCAUAGAGAGGUUAUCCGCUCAUUCCGAGAUCGGAAGAGCACACGU
B4: target 1 insU 3' of 22,insC 3' of 9 (mixed)
RNA 1: CACCCGUGCAAAAAUGCAGGGGUCUAAAACUGAGCGGAUAACCUCUCUAUGG
RNA 2: GGGAAUGGAUCCACAUCUACGAAUUCGUACUCAUAGAGAGGUUACUCCGCUCACCGAGAUCGGAAGAGCACACGU
B5: target 1 insG 3' of 19,insA 3' of 12 (mixed)
RNA 1: CACCCGUGCAAAAAUGCAGGGGUCUAAAACUGAGCGGAUAACCUCUCUAUGG
RNA 2: GGGAAUGGAUCCACAUCUACGAAUUCGUACCAUGAGAGAGGAUUAUCCGCUCACCGAGAUCGGAAGAGCACACGU
B6: target 1 insC 3' of 20,insC 3' of 17 (mixed)
RNA 1: CACCCGUGCAAAAAUGCAGGGGUCUAAAACUGAGCGGAUAACCUCUCUAUGG
RNA 2: GGGAAUGGAUCCACAUCUACGAAUUCGUACCACUAGCAGAGGUUAUCCGCUCACCGAGAUCGGAAGAGCACACGU
B7: target 1 U8C,G15U (mixed)
RNA 1: CACCCGUGCAAAAAUGCAGGGGUCUAAAACUGAGCGGAUAACCUCUCUAUGG
RNA 2: GGGAAUGGAUCCACAUCUACGAAUUCGUACCAUAGAUAGGUUACCCGCUCACCGAGAUCGGAAGAGCACACGU
B8: target 1 insU 3' of 20,insC 3' of 10 (mixed)
RNA 1: CACCCGUGCAAAAAUGCAGGGGUCUAAAACUGAGCGGAUAACCUCUCUAUGG
RNA 2: GGGAAUGGAUCCACAUCUACGAAUUCGUACCAUUAGAGAGGUUCAUCCGCUCACCGAGAUCGGAAGAGCACACGU
B9: target 1 insU 3' of 14,insG 3' of 4 (mixed)
RNA 1: CACCCGUGCAAAAAUGCAGGGGUCUAAAACUGAGCGGAUAACCUCUCUAUGG
RNA 2: GGGAAUGGAUCCACAUCUACGAAUUCGUACCAUAGAGAUGGUUAUCCGCGUCACCGAGAUCGGAAGAGCACACGU
B10: target 1 U3G,A20C (mixed)
RNA 1: CACCCGUGCAAAAAUGCAGGGGUCUAAAACUGAGCGGAUAACCUCUCUAUGG
RNA 2: GGGAAUGGAUCCACAUCUACGAAUUCGUACCCUAGAGAGGUUAUCCGCGCACCGAGAUCGGAAGAGCACACGU
B11: target 1 U3A,A20C (mixed)
RNA 1: CACCCGUGCAAAAAUGCAGGGGUCUAAAACUGAGCGGAUAACCUCUCUAUGG
RNA 2: GGGAAUGGAUCCACAUCUACGAAUUCGUACCCUAGAGAGGUUAUCCGCACACCGAGAUCGGAAGAGCACACGU
B12: target 1 insC 3' of 22,insC 3' of 11 (mixed)
RNA 1: CACCCGUGCAAAAAUGCAGGGGUCUAAAACUGAGCGGAUAACCUCUCUAUGG
RNA 2: GGGAAUGGAUCCACAUCUACGAAUUCGUACCCAUAGAGAGGUCUAUCCGCUCACCGAGAUCGGAAGAGCACACGU
B13: target 1 complement block 9-11 (mixed)
RNA 1: CACCCGUGCAAAAAUGCAGGGGUCUAAAACUGAGCGGAUAACCUCUCUAUGG
RNA 2: GGGAAUGGAUCCACAUCUACGAAUUCGUACCAUAGAGAGGAAUUCCGCUCACCGAGAUCGGAAGAGCACACGU
B14: target 1 insG 3' of 18,insA 3' of 8 (mixed)
RNA 1: CACCCGUGCAAAAAUGCAGGGGUCUAAAACUGAGCGGAUAACCUCUCUAUGG
RNA 2: GGGAAUGGAUCCACAUCUACGAAUUCGUACCAUAGGAGAGGUUAUACCGCUCACCGAGAUCGGAAGAGCACACGU
B15: target 1 G5U,G12U (mixed)
RNA 1: CACCCGUGCAAAAAUGCAGGGGUCUAAAACUGAGCGGAUAACCUCUCUAUGG
RNA 2: GGGAAUGGAUCCACAUCUACGAAUUCGUACCAUAGAGAGUUUAUCCUCUCACCGAGAUCGGAAGAGCACACGU
B16: target 1 insG 3' of 16,insA 3' of 12 (mixed)
RNA 1: CACCCGUGCAAAAAUGCAGGGGUCUAAAACUGAGCGGAUAACCUCUCUAUGG
RNA 2: GGGAAUGGAUCCACAUCUACGAAUUCGUACCAUAGAGGAGGAUUAUCCGCUCACCGAGAUCGGAAGAGCACACGU
B17: target 1 insC 3' of 18,insC 3' of 13 (mixed)
RNA 1: CACCCGUGCAAAAAUGCAGGGGUCUAAAACUGAGCGGAUAACCUCUCUAUGG
RNA 2: GGGAAUGGAUCCACAUCUACGAAUUCGUACCAUACGAGAGCGUUAUCCGCUCACCGAGAUCGGAAGAGCACACGU
B18: target 1 A1G,U19A (mixed)
RNA 1: CACCCGUGCAAAAAUGCAGGGGUCUAAAACUGAGCGGAUAACCUCUCUAUGG
RNA 2: GGGAAUGGAUCCACAUCUACGAAUUCGUACCAAAGAGAGGUUAUCCGCUCGCCGAGAUCGGAAGAGCACACGU
B19: target 1 insA 3' of 11 (mixed)
RNA 1: CACCCGUGCAAAAAUGCAGGGGUCUAAAACUGAGCGGAUAACCUCUCUAUGG
RNA 2: GGGAAUGGAUCCACAUCUACGAAUUCGUACCAUAGAGAGGUAUAUCCGCUCACCGAGAUCGGAAGAGCACACGU
B20: target 1 insC 3' of 14,insC 3' of 8 (mixed)
RNA 1: CACCCGUGCAAAAAUGCAGGGGUCUAAAACUGAGCGGAUAACCUCUCUAUGG
RNA 2: GGGAAUGGAUCCACAUCUACGAAUUCGUACCAUAGAGACGGUUAUCCCGCUCACCGAGAUCGGAAGAGCACACGU
B21: target 1 A1C,A16C (mixed)
RNA 1: CACCCGUGCAAAAAUGCAGGGGUCUAAAACUGAGCGGAUAACCUCUCUAUGG
RNA 2: GGGAAUGGAUCCACAUCUACGAAUUCGUACCAUAGCGAGGUUAUCCGCUCCCCGAGAUCGGAAGAGCACACGU
B22: target 1 insG 3' of 3,insA 3' of 3 (mixed)
RNA 1: CACCCGUGCAAAAAUGCAGGGGUCUAAAACUGAGCGGAUAACCUCUCUAUGG
RNA 2: GGGAAUGGAUCCACAUCUACGAAUUCGUACCAUAGAGAGGUUAUCCGCUGACACCGAGAUCGGAAGAGCACACGU
B23: target 1 C7U,A9U (mixed)
RNA 1: CACCCGUGCAAAAAUGCAGGGGUCUAAAACUGAGCGGAUAACCUCUCUAUGG
RNA 2: GGGAAUGGAUCCACAUCUACGAAUUCGUACCAUAGAGAGGUUUUUCGCUCACCGAGAUCGGAAGAGCACACGU
B24: target 1 insG 3' of 20,insC 3' of 20 (mixed)
RNA 1: CACCCGUGCAAAAAUGCAGGGGUCUAAAACUGAGCGGAUAACCUCUCUAUGG
RNA 2: GGGAAUGGAUCCACAUCUACGAAUUCGUACCAGCUAGAGAGGUUAUCCGCUCACCGAGAUCGGAAGAGCACACGU
B25: target 1 G5C,U10C (mixed)
RNA 1: CACCCGUGCAAAAAUGCAGGGGUCUAAAACUGAGCGGAUAACCUCUCUAUGG
RNA 2: GGGAAUGGAUCCACAUCUACGAAUUCGUACCAUAGAGAGGUCAUCCCCUCACCGAGAUCGGAAGAGCACACGU
B26: target 1 insA 3' of 10,insU 3' of 6 (mixed)
RNA 1: CACCCGUGCAAAAAUGCAGGGGUCUAAAACUGAGCGGAUAACCUCUCUAUGG
RNA 2: GGGAAUGGAUCCACAUCUACGAAUUCGUACCAUAGAGAGGUUAAUCCUGCUCACCGAGAUCGGAAGAGCACACGU
B27: target 1 insU 3' of 14,insA 3' of 3 (mixed)
RNA 1: CACCCGUGCAAAAAUGCAGGGGUCUAAAACUGAGCGGAUAACCUCUCUAUGG
RNA 2: GGGAAUGGAUCCACAUCUACGAAUUCGUACCAUAGAGAUGGUUAUCCGCUACACCGAGAUCGGAAGAGCACACGU

The data set has as its target T1, EsCas13d, nuclease-dead. As to the kind of experiment: crRNA (strand 1, pre-loaded); Mg2+; 40 mM Tris-HCl pH 7.5, 150 mM NaCl, 6 mM MgCl2, 1 mM DTT, 0.1% Tween-20, 0.2 mg/ml BSA; 25 C; 10 min per concentration, then washed. The note with it: tags: His6-TwinStrep-SUMO cleaved; N-terminal SNAP kept (SNAP-Surface 488); label: 3' end held by stalled T7 RNA polymerase.
Turning to B1, the Kd amounted to 38.2 ± 2.2 nM.
The figure for B2 is 6.1 ± 0.5 nM; for B3 it is 11.3 ± 0.9 nM; for B4 it is 36 ± 7 nM.
To B5 belongs around 80 nM; to B6, 4.9 ± 0.6 nM.
Molecule B7 returned a dissociation constant (Kd) of 34.6 ± 2.5 nM.
The figure for B8 is 30 ± 4 nM.
The figure for B9 is 31.8 ± 2.8 nM; for B10 it is 28.1 ± 2.2 nM.
The figure for B11 is 26.3 ± 1.6 nM; for B12 it is 50 ± 6 nM; for B13 it is 22.9 ± 1.5 nM.
Molecule B14 displayed a Kd of 56 ± 5 nM.
The molecule B15 registered a Kd of 41 ± 7 nM.
To B16 belongs 45 ± 9 nM; to B17, 49 ± 6 nM; to B18, 29 ± 4 nM.
To B19 belongs 16.4 ± 0.8 nM; to B20, 48 ± 7 nM; to B21, 42 ± 9 nM.
The figure for B22 is 6.1 ± 0.4 nM; for B23 it is 6.3 ± 0.4 nM; for B24 it is 50 ± 7 nM.
The molecule B25 yielded a Kd of 23.2 ± 1.2 nM.
B26 returned a Kd of 13.9 ± 0.5 nM.
As for B27, binding was characterised by a dissociation constant (Kd) of 56 ± 14 nM.
